{
  "source": "patent US11578315B2",
  "about": "“Truncated guinea pig L-asparaginase variants and methods of use” (THE BOARD OF TRUSTEES OF THE UNIVERSITY OF ILLINOIS, priority 2017, dated 2023)",
  "substrate": "NC(=O)C[C@H](N)C(=O)O",
  "assay": "L-asparaginase kinetics, NADH-dependent enzyme-coupled assay",
  "type": "biochemical, E. coli",
  "conditions": "other: pH 7.5, 37° C., 3 nM enzyme",
  "method": "The catalytic activity of the clones was determined using a spectroscopic NADH-dependent enzyme-coupled assay (Fernandez, et al. (2013) Int. J. Clin. Exp. Med. 6:478-487; Hejazi, et al. (2002) Biochem. J. 364:129-136), which measures the production of L-aspartic acid (Asp) through the 1:1 oxidation of reduced NADH. The conversion of NADH to NAD was measured spectrophotometrically as a decrease in absorbance at 340 nm at 37° C. All measurements were taken in triplicate in a buffer containing 100 mM Tris pH 7.5, 0.4 mM α-ketoglutarate and 0.4 mM NADH with 50 nM (hASNase1, hN-gC); 10 nM (gpASNase1, gN-hC, 63-hC, 64-hC, 65-hC, SA-hC) or 3 nM (ansB) enzyme. Glutamic-oxalacetic transaminase (Sigma) and malic dehydrogenase (Sigma) were helper enzymes for the coupled enzymatic reactions; 5 and 1 unit were used, respectively. Data were fit to the Michaelis-Menten equation using SigmaPlot (Systat Software Inc). Due to the cooperative nature of hASNase1, this enzyme was analyzed using the Hill equation.",
  "data": [
    {"protein": "E. coli L-asparaginase ansB (type II) (Escherichia coli K-12) (protein, made in house) LPNITILATGGTIAGGGDSATKSNYTVGKVGVENLVNAVPQLKDIANVKGEQVVNIGSQDMNDNVWLTLAKKINTDCDKTDGFVITHGTDTMEETAYFLDLTVKCDKPVVMVGAMRPSTSMSADGPFNLYNAVVTAADKASANRGVLVVMNDTVLDGRDVTKTNTTDVATFKSVNYGPLGYIHNGKIDYQRTPARKHTSDTPFDVSKLNELPKVGIVYNYANASDLPAKALVDAGYDGIVSAGVGNGNLYKSVFDTLATAAKTGTAVVRSSRVPTGATTQDAEVDDAKYGFVASGTLNPQKARVLLQLALTQTKDPQQIQQIFNQY", "values": [
      {"measurement": "Km", "result": "11 ± 1", "unit": "µM"},
      {"measurement": "kcat", "result": "48 ± 1", "unit": "s⁻¹"},
      {"measurement": "kcat/Km", "result": "4.4e+06", "unit": "M⁻¹ s⁻¹"}
    ]}
  ]
}
